The text below walks through data of patent US20250388683A1.

The target in the assay is canine IL-31 (canine).

For “Cytopoint® (Lokivetmab), a canine anti-IL31 (Cas number: 1533403-95-0) (antibody)”, the IC50 (read off the curve); STAT3-SEAP reporter, canine IL-31 stimulation lay within 1 to 10 nM.

The substance “Tirnovetmab, a canine anti-IL31 (Cas number: 2364504-80-1) (antibody)” yielded an IC50 (read off the curve); STAT3-SEAP reporter, canine IL-31 stimulation of 3 nM.
